From publication PMC5778463

B1: vRNA promoter (5' nt 1-16 / 3' nt 1-18) (structured_RNA)
RNA 1: AGUAGUAACAAGAGGG
RNA 2: UAUACCUCUGCUUCUGCU
modifications: 5' phosphate on strand 1

Target: Influenza A polymerase heterotrimer (PA-PB1-PB2) (Influenza A virus A/little …, UniProt H6QM92;H6QM91;H6QM90 1-713;1-756;1-760)
Experiment: crystal structure

| Binder | binding result |
| --- | --- |
| AAUCUAUAAUAG (ssRNA, 5' m7Gppp cap) [capped 12-mer RNA primer] | binds |
| B1 | binds |
